# Measured values reported in US8703698B2, “Compositions and methods for treating atherosclerosis” (The University of Chicago, priority 2003, dated 2014).
# T1: acyl CoA:cholesterol acyl transferase (Mus musculus, UniProt Q61263)
# T1 construct: host or cells: J774 mouse macrophages, cholesterol-loaded
# T1 sequence (Q61263 1-540): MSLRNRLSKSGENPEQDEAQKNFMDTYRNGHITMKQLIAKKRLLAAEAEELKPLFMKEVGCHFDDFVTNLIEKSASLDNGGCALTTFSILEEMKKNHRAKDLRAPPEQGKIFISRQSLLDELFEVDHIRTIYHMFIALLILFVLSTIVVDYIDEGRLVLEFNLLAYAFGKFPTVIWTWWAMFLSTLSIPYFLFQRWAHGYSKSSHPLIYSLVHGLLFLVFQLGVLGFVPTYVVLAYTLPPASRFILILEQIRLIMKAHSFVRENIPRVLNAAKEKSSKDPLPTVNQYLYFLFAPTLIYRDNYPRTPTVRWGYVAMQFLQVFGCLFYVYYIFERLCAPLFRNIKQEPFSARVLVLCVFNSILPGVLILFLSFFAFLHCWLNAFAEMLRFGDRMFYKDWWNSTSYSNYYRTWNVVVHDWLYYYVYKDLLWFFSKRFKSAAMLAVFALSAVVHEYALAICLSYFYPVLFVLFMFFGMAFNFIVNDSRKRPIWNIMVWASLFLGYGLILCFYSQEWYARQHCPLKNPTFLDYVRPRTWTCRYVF
# B1: GFFSFIGEAFQGAGDMWRAYTDMKEAGWKDGDKYFHARGNYDAAQRGPGGVWAAEKISD ARESFQEFFGRGHEDTMADQEANRHGRSGKDPNYYRPPGLPAKY (protein, listed as Mus musculis)
# chain: GFFSFIGEAFQGAGDMWRAYTDMKEAGWKDGDKYFHARGNYDAAQRGPGGVWAAEKISDARESFQEFFGRGHEDTMADQEANRHGRSGKDPNYYRPPGLPAKY
# notes: full length murine serum amyloid A isoform 1.1
# Columns and labels:
# [1] = molecular target: T1, acyl CoA:cholesterol acyl transferase; experiment: ACAT activity in macrophage post-nuclear homogenates; type: biochemical, murine; details: macrophage post-nuclear homogenates as enzyme source
# Excerpt: The in vitro effects of acute phase-HDL (AP-HDL;HDL-SAA) on acyl CoA:cholesterol acyl transferase and cholesterol ester hydrolase activities and on cellular cholesterol export were studied by the inventors using purified enzymes, cell homogenates, and whole cells. […] In contrast, murine SAA1.1 and apoA-1 had no effect. […] Using macrophages preloaded with radio-labeled cholesterol and injected intravenously into either inflamed or un-inflamed mice, it was shown that the inflamed mice, which have high SAA2.1 levels, effluxed cholesterol more rapidly and to a greater extent (6-fold greater) than their un-inflamed counterparts.
# [2] = system: cholesterol ester hydrolase; experiment: Rate of hydrolysis of cholesteryl ester in cholesterol-laden J774 cells (cholesterol ester hydrolase activity); type: cell-based, murine; details: lipoproteins or protein liposomes; tissue culture
# Experimental: Identification of the domain of SAA2.1 that is responsible for enhancing cholesterol ester hydrolase activity was performed in J774 cells preloaded with radio-labeled cholesteryl esters. These experiments were performed in the presence of Sandoz 58-035, an inhibitor of acyl CoA:cholesterol acyl transferase activity, to prevent re-esterification of liberated cholesterol and [^14C]oleate. Incubations proceeded for times ranging from 0 to 24 hours, following which the remaining quantities of [^14C]-labeled cholesteryl oleate in cells were measured to determine the rate of hydrolysis of cholesteryl ester. […] However, an equivalent amount of liposomes containing the synthetic peptide corresponding to amino acid residues 74-103 of murine SAA2.1 caused a 3-fold increase in cholesterol ester hydrolase activity in these cholesterol-laden murine cells. Newly confluent J774 cells were labeled with [^14C]-oleate during cholesterol loading with red blood cell membranes as described above. Cells were then incubated for up to 24 hours with 2 mL of DMEM containing 5% LPDS and 50 μg/mL of either native HDL, SAA-HDL, liposomes containing 2 μmoles of apoA-1, SAA1.1 or 2.1, or liposomes containing 0.5:mol synthetic peptides corresponding to amino acid residues 1-20 (SEQ ID NO:1), 21-50 (SEQ ID NO:2), 51-80 (SEQ ID NO:3) and 74-103 (SEQ ID NO:4) of murine SAA2.1. To determine the rate of cholesteryl ester hydrolysis, 2 μg/mL of the acyl CoA:cholesterol acyl transferase inhibitor Sandoz 58-035 (propanimide, 3-(decyldimethylsilyl)-N-[2-(4-methylphenyl)-1-phenylethyl]-(9Cl) was added during incubation with lipoproteins or liposomes to prevent […] and free cholesterol. To examine whether or not the rate of cholesteryl ester hydrolysis involved the lysosomal cholesteryl ester hydrolase, the cells were cultured in the presence of 50 μg/mL of either native HDL and chloroquine or SAA-HDL and chloroquine (100:M). Chloroquine is an agent that neutralizes the lysosomal proton gradient. At various time points, cellular lipids were extracted and analyzed for cholesteryl ester radioactivity as described above.
# J774 macrophages [3] = details: Tam et al. 2002; cited from earlier work
# J774 macrophages [4] = experiment: Cholesterol efflux from cholesterol-laden J774 macrophages to apolipoprotein liposomes with 8-bromo-cAMP or methyl-β-cyclodextrin; type: cell-based, mouse
# Excerpt: The export process of cholesterol is coupled to the ATP binding cassette transporter (ABCA1) pathway. Lipid efflux to apolipoproteins has been shown previously to be stimulated by treatment of murine macrophages with cAMP analogues (Lin et al. 2002 Biochem Biophys Res. Commun. 290:663-669; Oram et al. 2000 J. Biol. Chem. 275:34508-34511). Also, the expression of ABCA1 is induced by cAMP treatment (Lin et al. 2002 Biochem Biophys Res. Commun. 290:663-669; Oram et al. 2000 J. Biol. Chem. 275:34508-34511). The inventors herein examined the effect of 8-bromo-cAMP (0.3 mM) on cholesterol efflux by liposomes containing various apolipoproteins when incubated with cholesterol-laden J774 macrophages. Such cells were pre-labeled with [^3H]-cholesterol in the presence of Sandoz 58-035, an ACAT inhibitor, to ensure that all of the radiolabeled cholesterol released from the cells was derived from the un-esterified cholesterol pool, and the cells were treated for 12 hours with 8-bromo-cAMP. This was followed by incubation with various acceptors. The fractional release of cellular labeled cholesterol was determined as a function of time.
# To investigate whether an apolipoprotein free cholesterol acceptor such as cyclodextrin has the ability to catalyze the removal of cholesterol from macrophages, cholesterol-loaded and labeled J774 cells were incubated with liposomes and methyl-β-cyclodextrin (0.1 mM) (CD).
# To examine whether cholesterol export from J774 cells to medium containing liposomes containing 2 μM murine apoA-1, SAA1.1 or SAA2.1 is a cAMP-dependent process, the radio-labeled cholesterol-laden cells were incubated overnight with 8-Br-cAMP (0.3 mM), prior to the addition of liposomes containing 2 μM murine apoA-1, SAA1.1 or SAA2.1 to the culture medium. Cholesterol efflux to the medium was then determined at the indicated time points as described above. Efflux of radioactive label to the medium was calculated as a percentage of total counts in each well.
# [5] = molecular target: T1, acyl CoA:cholesterol acyl transferase; experiment: Incorporation of [14C]oleate into cholesteryl ester in cholesterol-laden macrophages (ACAT activity); type: cell-based, murine; details: lipoproteins or protein liposomes; tissue culture
# Experimental: The incorporation of [^14C]oleate into cholesteryl ester was used as a measure of acyl CoA:cholesterol acyl transferase activity to identify compositions inhibiting the enzyme activity. The relative acyl CoA:cholesterol acyl transferase activity was determined in cholesterol-laden murine cells that had been cultured in medium in the absence of liposomes or in the presence of protein-free liposomes or liposomes containing 0.5 μM synthetic peptides corresponding to amino acids 1-20, 21-50, 51-80 and 74-103 of murine SAA2.1.
# To load the cells with cholesterol, nearly confluent mono-layers were washed 3 times with phosphate buffered saline containing 2 mg/mL fatty acid-free bovine serum albumin (PBS-BSA) and incubated for 5 hours in DMEM supplemented with 5% lipoprotein-depleted serum (LPDS) (d>1.25 g/mL) and 175 μg of red blood cell membrane cholesterol. For the purpose of pool equilibration of added cholesterol, cell cultures were rinsed twice with PBS-BSA and incubated overnight in DMEM containing 5% LPDS. The relative activity of acyl CoA:cholesterol acyl transferase was determined in cholesterol-laden cells that had been cultured in medium containing no liposomes, protein-free liposomes or liposomes containing 0.5:M synthetic peptides corresponding to amino acid residues 1-20 (SEQ ID NO:1), 21-50 (SEQ ID NO:2), 51-80 (SEQ ID NO:3) or 74-103 (SEQ ID NO:4) of murine SAA2.1, respectively. Following 3 hours incubation with the above media, [^14C]-oleate was added and the cells were incubated for another 3 hour period (Mendez et al. J. Clin. Invest. 1994 94:1698-1705; Oram et al. Arterioscler. Thromb. 1991 11:403-414). Cells were chilled on ice and washed twice with PBS-BSA and twice with PBS. After addition of [^3H]-cholesteryl oleate (6000 dpm/well) as an internal standard, the lipids were extracted from the labeled cells and analyzed by thin-layer chromatography as described by Mendez et al. (J. Clin. Invest. 1994 94:1698-1705) and Oram et al. (Arterioscler. Thromb. 1991 11:403-414). The radioactivity in appropriate spots was measured to determine the incorporation of radioactivity into cholesteryl esters as a measure of acyl CoA:cholesterol acyl transferase activity.
molecule,measurement,setting,value
B1,acyl CoA:cholesterol acyl transferase activity,[1],had no effect
same,cholesterol ester hydrolase activity in intact cholesterol-laden macrophages,[2],no effect on enzyme activities
same,promotion of cholesterol efflux from cholesterol-laden macrophages compared to protein-free liposomes,J774 macrophages [3],not any more effective than protein-free liposomes
same,stimulation of cholesterol efflux to liposomes with or without cAMP pre-treatment,J774 macrophages [4]; 8-bromo-cAMP 0.3 mM,No stimulation of efflux
same,increase in the initial rate of cholesterol efflux with CD treatment,J774 macrophages [4]; methyl-β-cyclodextrin 0.1 mM plus liposomes,not
same,acyl CoA:cholesterol acyl transferase activity in intact cholesterol-laden macrophages,[5],no effect on enzyme activities
